Assay: Size exclusion chromatography (SEC) of purified S1P1-fusion partner proteins
Type: physicochemical
Details: presence or absence of ligand
Method: S1P1-fusion partner proteins (“S1P1 fusion receptors”) were purified from membranes by dodecyl-maltoside (DDM) extraction followed by immobilized metal affinity chromatography (IMAC) on Talon resin (Clontech) as detailed below. Frozen cellular membranes were thawed by adding room temperature lysis buffer to a total volume of 25 mL. The S1P1 receptor antagonist W146 was added to a final concentration of 125 μM. The mixture was allowed to incubate at room temperature for 1 hour to ensure complete saturation of the receptor with ligand followed by addition of iodoacetamide to a concentration of 1 mg/mL and an additional 1 hour incubation at 4° C. Receptor solubilization was initiated by addition of detergent and cholesteryl hemisuccinate (CHS) to achieve a final concentration of 0.5% DDM 0.1% CHS. The solubilization buffer consisted of the following mixture: 50 mM Hepes pH 7.5; 800 mM NaCl; 30 mM Imidazole; 0.1% DDM 0.02% CHS; 125 μM W146. […]
Eluted proteins were analyzed by size-exclusion chromatography (SEC) followed by SDS-PAGE. […] SEC fractions corresponding to S1P1-fusion partner proteins were evaluated separated by SDS-PAGE on a 10% gel and stained, confirming that each S1P1-fusion partner protein could be purified to near-homogeneity (data not shown).

B1: S1P1-flavodoxin: S1P1 receptor with flavodoxin replacing part of ICL3, SEQ ID NO: 3 (protein, listed as Homo sapiens)
chain: MGPTSVPLVKAHRSSVSDYVNYDIIVRHYNYTGKLNISADKENSIKLTSVVFILICCFIILENIFVLLTIWKTKKFHRPMYYFIGNLALSDLLAGVAYTANLLLSGATTYKLTPAQWFLREGSMFVALSASVFSLLAIAIERYITMLKMKLHNGSNNFRLFLLISACWVISLILGGLPIMGWNCISALSSCSTVLPLYHKHYILFCTTVFTLLLLSIVILYCRIYSLVRTRAKALIVYGSTTGNTEYTAETIARELADAGYEVDSRDAASVEAGGLFEGFDLVLLGCSTWGDDSIELQDDFIPLFDSLEETGAQGRKVACFGCGDSSWEYFCGAVDAIEEKLKNLGAEIVQDGLRIDGDPRAARDDIVGWAHDVRGAIASRSSENVALLKTVIIVLSVFIACWAPLFILLLLDVGCKVKTCDILFRAEYFLVLAVLNSGTNPIIYTLTNKEMRRAFIRIM
- stability by SEC (in words): stable in the presence or absence of ligand
